The results in this text go back to patent US20140302035A1.

One assay deals with c-Met (human) (UniProt P08581). In words: cell-based or functional assay.
The next assay has as its target c-Met (human), P08581. In words: cell-based or functional assay.

Sequence of c-Met (human) (P08581 25-1390): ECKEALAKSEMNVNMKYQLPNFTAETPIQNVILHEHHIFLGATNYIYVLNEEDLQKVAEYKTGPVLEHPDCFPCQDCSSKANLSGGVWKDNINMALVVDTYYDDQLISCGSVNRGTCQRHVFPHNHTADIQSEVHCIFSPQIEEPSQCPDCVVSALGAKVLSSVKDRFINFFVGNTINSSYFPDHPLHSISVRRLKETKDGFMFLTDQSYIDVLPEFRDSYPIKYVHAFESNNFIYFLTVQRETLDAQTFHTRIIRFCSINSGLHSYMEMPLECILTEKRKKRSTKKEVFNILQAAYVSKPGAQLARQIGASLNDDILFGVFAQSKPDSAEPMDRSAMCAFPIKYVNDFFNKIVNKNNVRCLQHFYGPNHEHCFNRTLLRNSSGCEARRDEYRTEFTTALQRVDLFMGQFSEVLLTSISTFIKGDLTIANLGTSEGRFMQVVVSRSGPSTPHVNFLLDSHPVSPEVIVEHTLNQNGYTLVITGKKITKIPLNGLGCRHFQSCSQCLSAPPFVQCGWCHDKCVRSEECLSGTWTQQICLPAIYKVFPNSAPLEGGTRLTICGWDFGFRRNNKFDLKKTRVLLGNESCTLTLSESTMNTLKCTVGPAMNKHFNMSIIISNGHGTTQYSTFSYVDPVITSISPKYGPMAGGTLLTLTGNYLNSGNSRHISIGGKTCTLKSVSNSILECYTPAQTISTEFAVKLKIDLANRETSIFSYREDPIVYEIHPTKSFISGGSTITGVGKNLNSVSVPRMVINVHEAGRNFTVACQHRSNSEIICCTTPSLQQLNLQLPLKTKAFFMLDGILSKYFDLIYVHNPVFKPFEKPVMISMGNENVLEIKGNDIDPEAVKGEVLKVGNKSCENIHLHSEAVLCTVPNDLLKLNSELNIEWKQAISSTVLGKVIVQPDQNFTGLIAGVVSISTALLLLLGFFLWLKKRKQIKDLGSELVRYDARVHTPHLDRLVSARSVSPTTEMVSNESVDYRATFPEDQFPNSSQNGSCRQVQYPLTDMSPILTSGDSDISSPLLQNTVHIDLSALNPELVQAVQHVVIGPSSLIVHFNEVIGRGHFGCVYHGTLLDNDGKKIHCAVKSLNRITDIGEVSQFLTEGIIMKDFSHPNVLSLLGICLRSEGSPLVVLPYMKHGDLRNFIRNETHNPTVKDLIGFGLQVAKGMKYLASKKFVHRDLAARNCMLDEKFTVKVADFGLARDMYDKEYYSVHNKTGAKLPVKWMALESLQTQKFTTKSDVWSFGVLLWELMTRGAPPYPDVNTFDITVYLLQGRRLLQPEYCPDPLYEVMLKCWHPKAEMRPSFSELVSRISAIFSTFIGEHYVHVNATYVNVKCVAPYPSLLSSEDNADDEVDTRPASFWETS
Sequence of c-Met (human), P08581 (P08581 25-1390): as above

B1: OA-5D5 (antibody, part only; not given: constant regions and Fc knob chain, V domains shown, not shown: another chain or arm of the molecule; a dimerising Fc or GST)
VH: EVQLVESGGGLVQPGGSLRLSCAASGYTFTSYWLHWVRQAPGKGLEWVGMIDPSNSDTRFNPNFKDRFTISADTSKNTAYLQMNSLRAEDTAVYYCATYRSYVTPLDYWGQGTLVTVSS
VL: DIQMTQSPSSLSASVGDRVTITCKSSQSLLYTSSQKNYLAWYQQKPGKAPKLLIYWASTRESGVPSRFSGSGSGTDFTLTISSLQPEDFATYYCQQYYAYPWTFGQGTKVEIK
In the assay with c-Met (human), B1 displayed a c-Met degradation (total c-Met ELISA, 24 h), A549 cells of less than 20% and a reduction of c-Met expression (total c-Met ELISA, 24 h), NCI-H2170 cells of 30%.

B2: Ab#5 (bispecific antibody, human IgG1, kappa)
heavy: QLQLQESGPGLVKPSETLSLTCTVSGGSISSSVYYWSWIRQPPGKGLEWIGVIYPSGNTYYSPSLKSRVTISVDTSKNQFSLKLSSVTAADTAVYYCARTIYDLFDIWGQGTMVTVSSASTKGPSVFPLAPSSKSTSGGTAALGCLVKDYFPEPVTVSWNSGALTSGVHTFPAVLQSSGLYSLSSVVTVPSSSLGTQTYICNVNHKPSNTKVDKKVEPKSCDKTHTCPSCPAPEFLGGPSVFLFPPKPKDTLMISRTPEVTCVVVDVSQEDPEVQFNWYVDGVEVHNAKTKPREEQFNSKYRVVSVLTVLHQDWLNGKEYKCKVSNKGLPSSIEKTISKAKGQPREPQVYTLPPSREEMTKNQVSLSCAVKGFYPSDIAVEWESNGQPENNYKTTPPVLDSDGSFFLVSKLTVDKSRWQQGNVFSCSVMHEALHNHYTQKSLSLSKSCDKTGGGGSGGGGSGGGGSGGGGSGGGGSGGGGSGGGGSGGGGSCPSCPAPEFLGGPSVFLFPPKPKDTLMISRTPEVTCVVVDVSQEDPEVQFNWYVDGVEVHNAKTKPREEQFNSDYRVVSVLTVLHQDWLNGKEYKCKVSNKGLPSSIEKTISKAKGQPREPQVYTLPPSREEMTKNQVSLWCLVKGFYPSDIAVEWESNGQPENNYKTTPPVLDSDGSFFLYSKLTVDKSRWQQGNVFSCSVMHEALHNHYTQKSLSLSGECGGGGSGGGGSDIVMTQSPLSLPVTPGEPASISCRSTKSLLHSNGITYLYWYLQKPGQSPQLLIYQMSNLASGVPDRFSSSGSGTDFTLKISRVEAEDEGVYYCAQNLEIPRTFGGGTKLEIKRTGGGGSGGGGSGGGGSGGGGSQVQLVQSGAEVKKPGESVKISCKASGYTFTNYGMNWVRQAPGQGLKWMGWINTYTGESTYADDFKGRFAFSLDTSASTAYLQLSSLRSEDTAVYFCARFAIKGDYWGQGTLVTVSS
light: DIQMTQSPSSVSASVGDRVTITCRASQGISSWLAWYQQKPGKAPKLLIYAASSLQSGVPSRFSGSGSGTDFTLTISSLQPEDFATYYCLQANSFPPTFGGGTKVEIKRTVAAPSVFIFPPSDEQLKSGTASVVCLLNNFYPREAKVQWKVDNALQSGNSQESVTEQDSKDSTYSLSSTLTLSKADYEKHKVYACEVTHQGLSSPVTKSFNRGEC
In the assay with c-Met (human), P08581, B2 registered a c-Met degradation (total c-Met ELISA, 24 h), A549 cells of less than 20% and a reduction of c-Met expression (total c-Met ELISA, 24 h), NCI-H2170 cells of 65%.
